Source: publication PMC10043284

Biological target: PANX2EM (residues 1-372 of human pannexin 2 with a C-terminal thermostabilized BRIL) (UniProt Q96RD6)
Assay: cryo-EM structure; purified PANX2EM (~6 mg/ml) in 20 mM Tris pH 8.0, 150 mM NaCl, 40 uM GDN, with 1 mM Fluorinated Fos-Choline 8; single-particle analysis, C7 symmetry, 3.92 Å; C1 reconstruction aligned with it

## PANX2EM (residues 1-372 of human pannexin 2 with a C-terminal thermostabilized BRIL) (from UniProt Q96RD6-3 1-372)
  stoichiometry N: 7
